Source: PMC4070327

Molecular target: TF^SBD-PPD (substrate-binding domain plus peptidyl prolyl isomerase domain of E. coli TF) (E. coli) (UniProt P0A850)
Experiment: NMR relaxation dispersion

Chain of PhoA^d-e (PhoA fragment with TF-binding sites d and e) (P00634 220-310): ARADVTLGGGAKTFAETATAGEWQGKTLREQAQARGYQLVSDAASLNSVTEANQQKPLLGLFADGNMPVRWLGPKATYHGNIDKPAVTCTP

koff	residence time (1/koff)	Substance
50 s⁻¹	20 ms	PhoA^a-c (PhoA fragment with TF-binding sites a to c) (from UniProt P00634 1-150) (domain or fragment)
	20 ms	PhoA^d-e (PhoA fragment with TF-binding sites d and e) (from UniProt P00634 220-310) (domain or fragment)
